From the nanobody polyreactivity screen of Harvey et al. (2022)

test: yeast display, Sf9 membrane polyspecificity reagent, FACS + sequencing; frameworks hold sequencing errors
How it was run: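 Polyreactivity labels are assigned by the sorting gate from which each nanobody was recovered. The gates were low and high (top ~1%), set on anti-HA fluorescence for expression and streptavidin fluorescence for reagent binding. Before sorting, galactose-induced (36–48 hours) yeast display cells were stained for 1 hour at 4 °C with 10% biotinylated, detergent-solubilized Sf9 membrane reagent.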

Sequence | polyreactivity (PSR sort gate)
QVQLVESGGGLVQAGGSLRLSCAASGITFFRNAMGWYRQAPGKERELVAAISRGGGSTYYADSVKGRFTISRDNAKNTVYLQMNSLKPEDTAVYYCAEYKYGTGVKMDYWGQGTQVTVSS | high polyreactivity
QVQLVESGGGLVQAGGSLRLSCAASGRTSFYYGMGWYRQAPGKERELVAGINYGGGSTYYADSVKGRFTISRDNAKNTVYLQMNSLKPEDTAVYYCNAGDGPDEEYDYWGQGTQVTVSS | low polyreactivity
QVQLVESGGGLVQAGGSLRLSSAASGLTFKGYAIGWYRQEPGKESELVAANNGSGGSTYYADSVKRRFTISRDNAKNTVYLQMNSLKPEDTAVYYCNAARGHPYPLSDNVDDYDYWGQGTQVTVSS | low polyreactivity
QVQLVESGGGLVQAGGSLRLSCAASGSIFRPYAMGWYRQAPGKERELVATITWSGGSTYYADSVKGRFTISRDNAKNTVYLQMNSLKPEDTAVYYCAADPDLLWEYSDGYYGGDGGYWGQGTQVTVSS | low polyreactivity
QVQLVESGGGLVQAGGSLRLSCGASGRIIGYNAMGWYRQAPGKERELVAVISTSGTITYYADSVKGRFTISRDNAKNTVYLQMNRLKPEDTAVYYCAARYYQRANGFGYCGQGTQVTVSS | low polyreactivity
QVQLVESGGGLVQAGGSLRLSCAASGRTFYFYAMGWYRQAPGKERELVAAITWSDGTTYYADSVKGRFTISRDNAKNTVYLHMNSLKPEDTAVYYCAARVRIYGRRYNYWGQGTQVTVSS | high polyreactivity
QVQLVESGGGLVQAGGSLRLSCASSGSTFEANAMGWSRQAPGKDRELVAAISSRGGSTYYADSVKGRFTISRDNGKNTVYFQRNSLKPEDTAVYYCAALLRSGGEYDYWGQGTQVTVSS | high polyreactivity
QVQLVESGGGLVHSGGSLRLSCAASGSIFRRNAMGWYIQAPGKERELVAAISASGGRTYADSVKGRFTISRDNAKNTVYLQMNSLKPEDTAVYYCAVRSYWRVDYWGQGTQVTVSS | high polyreactivity
QVQLVESGGGLVQAGGSLRLSCAASGRTFGSYAMGWYRQAPGKERELVAAITWSGTGTYYADSVKGRFTISRDNAKNTVYLQMNSLKPEDTAVYYCNTDRWYAYDWGQGTQVTVSS | high polyreactivity
QVQLVESGGGLVQAGGSLRVSCAASGSIFSYYDMGWYRPAPGKERELVAAITDGGDRTYYADSVKGRFTISRDNAKNTVYLQMNSLKPEHTAVYYCAAVVSVNMYWGQGTQVTVSS | low polyreactivity
QVQLVESCGGIVQAGGSLRLSCAASGSILRSNSMGTYRQAPGKERELVAAISSRGGSTYYADSVKGRFTISRDNAKNTVYLQMNSLNPEDTAVYYCNKASYTVISYDEYDYWGQVTQVTVSS | high polyreactivity
QVLVGESGGGLVQAGGSLRLSCAASGSTFSNYAMGWYRQAPGTERELVAVSTRGASTYYADSVKGRFTISRDNAKNTVYLQMNTLKPEDTAVYYCAASYWRYRVVHSPYRYYYWGQGTQVNVSS | high polyreactivity
QVQVVESGGGLVKAGGSLSLSCDASGITFVAYAMGWYRQAPGKERELVAAISYNGGSTNYADSVKGRFTISRDNAMNTVYLQINSLKPEDTAVFYCAADLADFYPRFNYWGQGTQVTVSS | low polyreactivity
QVQLVESGGGLVQAGGSLRISCAASGNTFGDYAMGWYRQAPGKERELVAAISRSGGSTSYADSVKGRFTISRDNAKNTVYLQMNSLKPEDTAVYYCAGYWQRFGYDYWGQGTLVTVSS | low polyreactivity
QVQLVESGGGLVQAGGSLRLSCAASGFTFRFYVMGWYRQAPGKERELVAAISKRGASTSYADSVKGRFTISRDNAKNTVYLQMNSLKPEDTAVYYCAASAKRGEMGYWGQGTQVTVSS | high polyreactivity
QVQLVESGGGLVQAGGSLRLRCAASGFTLRLYTMAWYRQAPGQERELVAAINKRGGSTYYADSVKGRFTISRDNAKNSVYLQMISLKPEDTAVYYCANVPGYKAYEYDYWGQGTQVTVSS | high polyreactivity
